Results published in the supplement of paper PMC9233669.
This sample holds only a part of the variants without activity.

Legend:
biotinyl-Phe-oxazolone = assay: self-aminoacylation, catalytic enhancement (BFO) (fold over background); higher = more active; k-Seq, kA / k0A0; sequences stand for … in GGGAAUGGAUCCACAUCUACGAAUUC…UUCACUGCAGACUUGACGAAGCUG
In short: (§1)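 Catalytic enhancement equals the median kA over the uncatalyzed rate, the latter read from the low-activity peak of a bimodal Gaussian fit. Values of kA came from fitting each sequence's fraction reacted to a pseudo-first-order model, with 1000 bootstraps. Reacted RNA was captured with streptavidin and quantified by triplicate qPCR and Illumina sequencing after 90 minutes at room temperature with 2–1250 μM biotinyl-aminoacyl-oxazolone and 0.43 μM mutagenized RNA pools bearing a 21-nt variable region.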

biotinyl-Ile-oxazolone = assay: self-aminoacylation, catalytic enhancement (BIO) (fold over background); higher = more active; k-Seq, kA / k0A0; sequences stand for … in GGGAAUGGAUCCACAUCUACGAAUUC…UUCACUGCAGACUUGACGAAGCUG
In short: as §1

biotinyl-Met-oxazolone = assay: self-aminoacylation, catalytic enhancement (BMO) (fold over background); higher = more active; k-Seq, kA / k0A0; sequences stand for … in GGGAAUGGAUCCACAUCUACGAAUUC…UUCACUGCAGACUUGACGAAGCUG
In short: as §1

biotinyl-Val-oxazolone = assay: self-aminoacylation, catalytic enhancement (BVO) (fold over background); higher = more active; k-Seq, kA / k0A0; sequences stand for … in GGGAAUGGAUCCACAUCUACGAAUUC…UUCACUGCAGACUUGACGAAGCUG
In short: as §1

biotinyl-Leu-oxazolone = assay: self-aminoacylation, catalytic enhancement (BLO) (fold over background); higher = more active; k-Seq, kA / k0A0; sequences stand for … in GGGAAUGGAUCCACAUCUACGAAUUC…UUCACUGCAGACUUGACGAAGCUG
In short: as §1

biotinyl-Trp-oxazolone = assay: self-aminoacylation, catalytic enhancement (BWO) (fold over background); higher = more active; k-Seq, kA / k0A0; sequences stand for … in GGGAAUGGAUCCACAUCUACGAAUUC…UUCACUGCAGACUUGACGAAGCUG
In short: as §1

Sequence	self-aminoacylation (biotinyl-Phe-oxazolone)	self-aminoacylation (biotinyl-Ile-oxazolone)	self-aminoacylation (biotinyl-Met-oxazolone)	self-aminoacylation (biotinyl-Val-oxazolone)	self-aminoacylation (biotinyl-Leu-oxazolone)	self-aminoacylation (biotinyl-Trp-oxazolone)
AAGUUUGUCAAUAGUCGCAAG [Fam3.1 aminoacylation ribozyme variant]	3.72	2.03	1.87	1.78	2.25	1.95
AUUACCGUGGCCAUCGAGUGA [Fam2.1 aminoacylation ribozyme variant]	32.8	3.2	4.71	3.89	5.84	8.11
UUACUUCUAACAAUCGGUCUG [Fam1A.1 aminoacylation ribozyme variant]	0.907	1.08	1.09	1.08	1.11	0.836
GUAUUUCAAACAAUCGGUCUG [Fam1A.1 aminoacylation ribozyme variant]	2.64	1.1	1.09	1.04	1.02	2.34
UUUCACCUAGGUCAUCGGCUG [Fam2.2 aminoacylation ribozyme variant]	8.98	1.93	1.89	2.29	1.82	2.74
CCACACUUCAAUCAAUCGAUC [Fam1B.1 aminoacylation ribozyme variant]	1.25	0.523	0.463	0.609	0.512	0.592
UUUCACAUAGGUCAUCGGGUG [Fam2.2 aminoacylation ribozyme variant]	56.6	5.3	7.92	5.12	8.51	7.61
CCACACUUCAACCAAUCAGUC [Fam1B.1 aminoacylation ribozyme variant]	28.8	0.978	0.804	1.04	1.04	9.75
AUUAACCUGGUAAUCGAGUGA [Fam2.1 aminoacylation ribozyme variant]	52.9	3.86	8.82	4.05	9.73	11.3
CUACAUCAAAUAAUCGGUCUG [Fam1A.1 aminoacylation ribozyme variant]	1.42	0.801	0.804	0.864	0.717	0.824
CUACUUCAAGCAAUCGGUAUG [Fam1A.1 aminoacylation ribozyme variant]	8.16	0.94	1.07	0.963	1.02	4.52
CCACACUUCAAGCCAUCGGGC [Fam1B.1 aminoacylation ribozyme variant]	1.42	2.49	1.85	3.22	4.06	2.1
AUCACCCUGGUCGUCGAGUGA [Fam2.1 aminoacylation ribozyme variant]	5.78	1.24	1.39	1.31	2.67	1.41
AGGUUUGCUAAUAGUCGCAAA [Fam3.1 aminoacylation ribozyme variant]	3.21	2.52	2.11	2.2	2.42	1.92
AUUCACCUAGGUCAGCGGGCG [Fam2.2 aminoacylation ribozyme variant]	27	5.22	5.27	5.42	7.99	4.44
AUUCACCGCGGUCAUCGGGUG [Fam2.2 aminoacylation ribozyme variant]	59.7	4.65	7.49	5.04	8.56	7.69
AUUAGCCUGGUCAACGAGUGA [Fam2.1 aminoacylation ribozyme variant]	18.2	3.71	5.21	3.45	5.61	6.82
CCACACUUCGAGUAAUCGGUC [Fam1B.1 aminoacylation ribozyme variant]	0.641	0.822	0.958	0.893	0.78	0.789
AUUCCCCUAGGUCAUCAGGUG [Fam2.2 aminoacylation ribozyme variant]	29.4	6.44	8.46	6.96	8.19	7.46
AUUACCAUGGUCAUCCAGUGA [Fam2.1 aminoacylation ribozyme variant]	28.2	3.62	5.96	3.46	6.27	8
CCACACUUAUAGCAAUCGGUC [Fam1B.1 aminoacylation ribozyme variant]	0.926	1	0.667	0.927	0.722	0.886
